These sequences were tested against Hck (UniProt P08631) (assay: phosphorylation enrichment, bacterial display (enrichment ratio); higher = better substrate or ligand; peptides without Tyr show the background).
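Wherever SH2 binding enrichment of the phosphorylated peptide, bacterial display is given: peptide library displayed on the E. coli surface as eCPX fusions, selected cells deep-sequenced, score is each peptide's frequency after selection divided by its frequency in the input.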
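Wherever phosphorylation enrichment, bacterial display is given: 11-residue human phosphosite peptides and single-mutation variants displayed on the E. coli surface, counted by deep sequencing, each peptide's frequency after selection divided by its frequency in the unselected input library; frequency after pTyr selection over input frequency; kinase dosed for 20-30% of maximal phosphorylation in three min.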

Sequence of Hck (P08631 whole entry, looked up, the tested form may be a part): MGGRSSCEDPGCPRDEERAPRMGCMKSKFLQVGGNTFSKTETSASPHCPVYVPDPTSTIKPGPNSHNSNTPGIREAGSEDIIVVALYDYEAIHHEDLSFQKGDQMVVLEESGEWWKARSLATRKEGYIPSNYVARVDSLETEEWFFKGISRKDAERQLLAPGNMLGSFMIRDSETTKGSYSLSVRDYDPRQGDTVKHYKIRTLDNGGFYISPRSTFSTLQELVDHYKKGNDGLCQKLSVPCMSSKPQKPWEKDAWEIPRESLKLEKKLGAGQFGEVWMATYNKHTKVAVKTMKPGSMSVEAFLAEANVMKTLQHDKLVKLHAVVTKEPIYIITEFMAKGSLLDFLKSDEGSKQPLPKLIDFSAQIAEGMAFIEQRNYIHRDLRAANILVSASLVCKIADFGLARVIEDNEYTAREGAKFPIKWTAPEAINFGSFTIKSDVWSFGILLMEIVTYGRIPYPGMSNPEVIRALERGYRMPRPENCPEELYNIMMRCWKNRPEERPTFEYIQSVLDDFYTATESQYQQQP

Row | Sequence | phosphorylation enrichment
1 | QNTGHYSSDNT [TMEFF2_Y361] | 0.544
2 | KGEDFYCVTCH [FHL1_Y149] | 0.801
3 | KFLENYFDLEK [MMP3_Y41_K45E_YF] | 0.487
4 | VKGGAYFPVTV [MCCC2_Y145_YF] | 0.431
5 | EQMLEYMEQLQ [CFAP45_Y289] | 0.638
6 | DLWEKYMDCGG [HAP1_Y440_R437W] | 0.596
7 | VPANRYDLLCL [FARSB_Y72] | 0.458
8 | TLCLCYKEIEE [ATP8B1_Y658] | 0.733
9 | NNIDYYKNTTN [FGFR2_Y657_K659N] | 0.512

The sequences below were run against Jak2 (UniProt O60674) in the same assay as above.
Sequence of Jak2 (O60674 whole entry, looked up): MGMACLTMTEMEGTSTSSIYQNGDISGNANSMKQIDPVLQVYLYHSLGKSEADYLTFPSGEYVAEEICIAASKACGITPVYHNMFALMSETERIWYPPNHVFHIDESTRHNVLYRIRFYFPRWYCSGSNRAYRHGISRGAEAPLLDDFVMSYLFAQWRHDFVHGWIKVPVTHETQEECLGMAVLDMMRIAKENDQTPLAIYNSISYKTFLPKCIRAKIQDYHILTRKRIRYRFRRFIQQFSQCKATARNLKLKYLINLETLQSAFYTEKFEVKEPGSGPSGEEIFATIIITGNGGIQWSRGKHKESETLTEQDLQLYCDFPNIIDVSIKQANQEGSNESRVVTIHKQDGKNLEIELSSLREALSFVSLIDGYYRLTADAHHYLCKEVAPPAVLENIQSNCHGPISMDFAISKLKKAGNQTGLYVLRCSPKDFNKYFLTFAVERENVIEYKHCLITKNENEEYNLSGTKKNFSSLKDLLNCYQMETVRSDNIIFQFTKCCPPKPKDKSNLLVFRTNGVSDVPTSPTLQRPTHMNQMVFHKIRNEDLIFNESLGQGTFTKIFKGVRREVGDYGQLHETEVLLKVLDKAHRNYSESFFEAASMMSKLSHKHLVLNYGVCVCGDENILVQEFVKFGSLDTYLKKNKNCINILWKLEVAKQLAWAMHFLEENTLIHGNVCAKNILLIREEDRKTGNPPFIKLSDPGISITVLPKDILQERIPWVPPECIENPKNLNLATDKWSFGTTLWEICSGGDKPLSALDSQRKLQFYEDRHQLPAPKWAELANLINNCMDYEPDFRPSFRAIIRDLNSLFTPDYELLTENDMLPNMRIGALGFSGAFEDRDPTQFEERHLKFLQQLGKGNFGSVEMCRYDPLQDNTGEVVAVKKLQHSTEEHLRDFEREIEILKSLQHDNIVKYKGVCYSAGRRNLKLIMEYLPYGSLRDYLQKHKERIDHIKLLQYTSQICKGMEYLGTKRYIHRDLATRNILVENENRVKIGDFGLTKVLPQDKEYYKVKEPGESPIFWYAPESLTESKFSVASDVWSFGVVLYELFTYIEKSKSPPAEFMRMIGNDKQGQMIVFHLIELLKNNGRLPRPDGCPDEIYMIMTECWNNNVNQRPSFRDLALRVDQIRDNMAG

Row | Sequence | phosphorylation enrichment
10 | AFGNLYGSRKQ [YIPF7_Y59_YF] | 0.505
11 | ELANFYKLHHI [AK7_Y391_YF] | 0.922
12 | QMVGKYASSFM [AVPR2_Y124_M123K_YF] | 0.774
13 | RSSKMYLKTRS [LPL_Y329] | 0.827
14 | CGTPDYIAREI [PRKCG_Y521_P524R] | 1.06
15 | LTQRTYMSENN [GPAA1_Y49_A54N] | 0.67
16 | QNTGHYSSDNT [TMEFF2_Y361] | 0.443
17 | KGEDFYCVTCH [FHL1_Y149] | 0.933
18 | KFLENYFDLEK [MMP3_Y41_K45E_YF] | 1.39
19 | VKGGAYFPVTV [MCCC2_Y145_YF] | 0.807
20 | EQMLEYMEQLQ [CFAP45_Y289] | 1.1
21 | DLWEKYMDCGG [HAP1_Y440_R437W] | 1.12
22 | VPANRYDLLCL [FARSB_Y72] | 0.873
23 | TLCLCYKEIEE [ATP8B1_Y658] | 1.36
24 | NNIDYYKNTTN [FGFR2_Y657_K659N] | 0.596
25 | AATTAYSKPKQ [MAP3K7_Y405_R410Q] | 0.257
26 | LVKDGYQTAQP [CSF1R_Y873_M875T] | 1.27

Each sequence was assayed against MERTK (UniProt Q12866) in the same assay as above.
Sequence of MERTK (Q12866 whole entry, looked up): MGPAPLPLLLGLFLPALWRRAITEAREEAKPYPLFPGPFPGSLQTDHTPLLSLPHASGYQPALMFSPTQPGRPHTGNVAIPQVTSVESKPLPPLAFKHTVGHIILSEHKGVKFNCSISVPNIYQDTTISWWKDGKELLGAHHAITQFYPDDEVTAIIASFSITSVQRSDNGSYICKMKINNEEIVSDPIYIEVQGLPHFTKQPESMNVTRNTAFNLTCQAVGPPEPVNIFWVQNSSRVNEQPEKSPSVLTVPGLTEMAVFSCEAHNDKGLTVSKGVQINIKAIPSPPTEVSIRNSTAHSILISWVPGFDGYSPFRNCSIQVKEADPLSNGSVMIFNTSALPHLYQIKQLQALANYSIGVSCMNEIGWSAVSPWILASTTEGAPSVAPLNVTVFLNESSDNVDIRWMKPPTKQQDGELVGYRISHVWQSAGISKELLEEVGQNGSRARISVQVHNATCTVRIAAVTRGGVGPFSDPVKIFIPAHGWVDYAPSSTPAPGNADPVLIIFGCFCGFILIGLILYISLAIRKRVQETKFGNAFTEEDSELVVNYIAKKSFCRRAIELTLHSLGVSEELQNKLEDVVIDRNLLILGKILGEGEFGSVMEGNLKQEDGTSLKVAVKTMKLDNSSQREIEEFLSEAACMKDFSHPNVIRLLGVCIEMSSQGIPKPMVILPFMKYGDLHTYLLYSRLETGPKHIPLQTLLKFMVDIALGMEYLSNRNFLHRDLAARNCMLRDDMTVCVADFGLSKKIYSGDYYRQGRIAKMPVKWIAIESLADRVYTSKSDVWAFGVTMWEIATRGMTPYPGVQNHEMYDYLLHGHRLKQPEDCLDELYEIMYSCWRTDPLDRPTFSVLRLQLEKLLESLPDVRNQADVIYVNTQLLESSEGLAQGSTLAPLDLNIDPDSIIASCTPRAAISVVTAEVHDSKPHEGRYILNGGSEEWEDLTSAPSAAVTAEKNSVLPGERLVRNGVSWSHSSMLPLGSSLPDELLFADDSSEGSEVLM

Row | Sequence | phosphorylation enrichment
27 | AFGNLYGSRKQ [YIPF7_Y59_YF] | 0.519
28 | ELANFYKLHHI [AK7_Y391_YF] | 0.67
29 | QMVGKYASSFM [AVPR2_Y124_M123K_YF] | 0.642
30 | RSSKMYLKTRS [LPL_Y329] | 1.53
31 | CGTPDYIAREI [PRKCG_Y521_P524R] | 0.445
32 | LTQRTYMSENN [GPAA1_Y49_A54N] | 0.87
33 | QNTGHYSSDNT [TMEFF2_Y361] | 0.544
34 | KGEDFYCVTCH [FHL1_Y149] | 0.597
35 | KFLENYFDLEK [MMP3_Y41_K45E_YF] | 0.46
36 | VKGGAYFPVTV [MCCC2_Y145_YF] | 0.692
37 | EQMLEYMEQLQ [CFAP45_Y289] | 0.494
38 | DLWEKYMDCGG [HAP1_Y440_R437W] | 0.458
39 | VPANRYDLLCL [FARSB_Y72] | 0.514
40 | TLCLCYKEIEE [ATP8B1_Y658] | 0.618
41 | NNIDYYKNTTN [FGFR2_Y657_K659N] | 0.32

The sequences below were run on c-Abl (mouse) in the same assay as above.

Row | Sequence | phosphorylation enrichment
42 | AFGNLYGSRKQ [YIPF7_Y59_YF] | 0.657
43 | ELANFYKLHHI [AK7_Y391_YF] | 0.8
44 | QMVGKYASSFM [AVPR2_Y124_M123K_YF] | 1.15
45 | RSSKMYLKTRS [LPL_Y329] | 0.585
46 | CGTPDYIAREI [PRKCG_Y521_P524R] | 0.849
47 | LTQRTYMSENN [GPAA1_Y49_A54N] | 1.01
48 | QNTGHYSSDNT [TMEFF2_Y361] | 0.49
49 | KGEDFYCVTCH [FHL1_Y149] | 0.675
50 | KFLENYFDLEK [MMP3_Y41_K45E_YF] | 0.844
51 | VKGGAYFPVTV [MCCC2_Y145_YF] | 0.522
52 | EQMLEYMEQLQ [CFAP45_Y289] | 0.532
53 | DLWEKYMDCGG [HAP1_Y440_R437W] | 0.738
54 | VPANRYDLLCL [FARSB_Y72] | 0.773
55 | TLCLCYKEIEE [ATP8B1_Y658] | 0.886
56 | NNIDYYKNTTN [FGFR2_Y657_K659N] | 0.446
57 | AATTAYSKPKQ [MAP3K7_Y405_R410Q] | 0.121
58 | LVKDGYQTAQP [CSF1R_Y873_M875T] | 0.544

These sequences were tested on c-Src in the same assay as above.

Row | Sequence | phosphorylation enrichment
59 | AFGNLYGSRKQ [YIPF7_Y59_YF] | 1.09
60 | ELANFYKLHHI [AK7_Y391_YF] | 0.819
61 | QMVGKYASSFM [AVPR2_Y124_M123K_YF] | 0.635
62 | RSSKMYLKTRS [LPL_Y329] | 0.452
63 | CGTPDYIAREI [PRKCG_Y521_P524R] | 0.443
64 | LTQRTYMSENN [GPAA1_Y49_A54N] | 0.549
65 | QNTGHYSSDNT [TMEFF2_Y361] | 0.704
66 | KGEDFYCVTCH [FHL1_Y149] | 0.613
67 | KFLENYFDLEK [MMP3_Y41_K45E_YF] | 0.502
68 | VKGGAYFPVTV [MCCC2_Y145_YF] | 0.386
69 | EQMLEYMEQLQ [CFAP45_Y289] | 0.505
70 | DLWEKYMDCGG [HAP1_Y440_R437W] | 0.436
71 | VPANRYDLLCL [FARSB_Y72] | 0.487
72 | TLCLCYKEIEE [ATP8B1_Y658] | 0.624
73 | NNIDYYKNTTN [FGFR2_Y657_K659N] | 0.387
74 | AATTAYSKPKQ [MAP3K7_Y405_R410Q] | 0.063
75 | LVKDGYQTAQP [CSF1R_Y873_M875T] | 1.29

What follows are sequences tested against Grb2 SH2 (UniProt P62993) (assay: SH2 binding enrichment of the phosphorylated peptide, bacterial display (enrichment ratio); higher = better substrate or ligand; peptides without Tyr show the background).

Row | Sequence | SH2 binding enrichment
76 | ELANFYKLHHI [AK7_Y391_YF] | 0.901
77 | QMVGKYASSFM [AVPR2_Y124_M123K_YF] | 0.894
78 | KGEDFYCVTCH [FHL1_Y149] | 1.19
79 | EQMLEYMEQLQ [CFAP45_Y289] | 0.799
80 | VPANRYDLLCL [FARSB_Y72] | 0.831
81 | TLCLCYKEIEE [ATP8B1_Y658] | 0.921
82 | NNIDYYKNTTN [FGFR2_Y657_K659N] | 1.27
83 | LVKDGYQTAQP [CSF1R_Y873_M875T] | 0.909

Now from value to sequence:

Row | SH2 binding enrichment | Sequence
84 | 0.788 | AFGNLYGSRKQ [YIPF7_Y59_YF]
85 | 0.83 | RSSKMYLKTRS [LPL_Y329]
86 | 0.793 | CGTPDYIAREI [PRKCG_Y521_P524R]
87 | 0.709 | LTQRTYMSENN [GPAA1_Y49_A54N]
88 | 0.581 | QNTGHYSSDNT [TMEFF2_Y361]
89 | 0.991 | KFLENYFDLEK [MMP3_Y41_K45E_YF]
90 | 0.699 | VKGGAYFPVTV [MCCC2_Y145_YF]
91 | 0.768 | DLWEKYMDCGG [HAP1_Y440_R437W]
92 | 0.648 | AATTAYSKPKQ [MAP3K7_Y405_R410Q]

Each sequence was assayed against SHP2-C SH2 in the same assay as above.

Row | Sequence | SH2 binding enrichment
93 | ELANFYKLHHI [AK7_Y391_YF] | 1.01
94 | QMVGKYASSFM [AVPR2_Y124_M123K_YF] | 0.732
95 | KGEDFYCVTCH [FHL1_Y149] | 0.842
96 | EQMLEYMEQLQ [CFAP45_Y289] | 0.5
97 | VPANRYDLLCL [FARSB_Y72] | 0.907
98 | TLCLCYKEIEE [ATP8B1_Y658] | 0.937
99 | NNIDYYKNTTN [FGFR2_Y657_K659N] | 0.73
100 | LVKDGYQTAQP [CSF1R_Y873_M875T] | 0.307

Continued, values first:

Row | SH2 binding enrichment | Sequence
101 | 0.376 | AFGNLYGSRKQ [YIPF7_Y59_YF]
102 | 0.712 | RSSKMYLKTRS [LPL_Y329]
103 | 0.631 | CGTPDYIAREI [PRKCG_Y521_P524R]
104 | 0.676 | LTQRTYMSENN [GPAA1_Y49_A54N]
105 | 0.506 | QNTGHYSSDNT [TMEFF2_Y361]
106 | 1.06 | KFLENYFDLEK [MMP3_Y41_K45E_YF]
107 | 0.642 | VKGGAYFPVTV [MCCC2_Y145_YF]
108 | 0.617 | DLWEKYMDCGG [HAP1_Y440_R437W]
109 | 0.57 | AATTAYSKPKQ [MAP3K7_Y405_R410Q]

The sequences below were run against c-Src SH2 in the same assay as above.

Row | Sequence | SH2 binding enrichment
110 | ELANFYKLHHI [AK7_Y391_YF] | 0.481
111 | QMVGKYASSFM [AVPR2_Y124_M123K_YF] | 0.467
112 | KGEDFYCVTCH [FHL1_Y149] | 0.962
113 | EQMLEYMEQLQ [CFAP45_Y289] | 0.357
114 | VPANRYDLLCL [FARSB_Y72] | 3.03
115 | TLCLCYKEIEE [ATP8B1_Y658] | 1.29
116 | NNIDYYKNTTN [FGFR2_Y657_K659N] | 0.546
117 | LVKDGYQTAQP [CSF1R_Y873_M875T] | 1.35

Now from value to sequence:

Row | SH2 binding enrichment | Sequence
118 | 0.35 | AFGNLYGSRKQ [YIPF7_Y59_YF]
119 | 0.553 | RSSKMYLKTRS [LPL_Y329]
120 | 0.452 | CGTPDYIAREI [PRKCG_Y521_P524R]
121 | 0.442 | LTQRTYMSENN [GPAA1_Y49_A54N]
122 | 0.347 | QNTGHYSSDNT [TMEFF2_Y361]
123 | 0.741 | KFLENYFDLEK [MMP3_Y41_K45E_YF]
124 | 0.601 | VKGGAYFPVTV [MCCC2_Y145_YF]
125 | 0.55 | DLWEKYMDCGG [HAP1_Y440_R437W]
126 | 0.477 | AATTAYSKPKQ [MAP3K7_Y405_R410Q]

From the supplement of paper PMC10065799, “High-throughput profiling of sequence recognition by tyrosine kinases and SH2 domains using bacterial peptide display” (eLife, 2023)
